Source: patent publication US20200317768A1 (published 2020)

Target: T1, cynomolgus monkey FcγRIIa1 extracellular domain, His-tagged (cynomolgus monkey)
T1 construct: also called cyno FcγRIIa1; cynoFcgRIIa1
T1 chain: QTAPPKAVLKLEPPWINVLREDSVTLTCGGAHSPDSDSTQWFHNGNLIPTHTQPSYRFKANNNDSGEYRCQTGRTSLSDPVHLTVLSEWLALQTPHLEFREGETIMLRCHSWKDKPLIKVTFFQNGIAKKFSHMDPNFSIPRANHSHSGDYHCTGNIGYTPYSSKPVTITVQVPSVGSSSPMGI
Assay: SPR; KD of SG1 / KD of variant;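 note: relative to parent M103205H795-SG1 carrying the SG1 human heavy chain constant region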

Row | Binder | KD fold (SG1 = 1)
1 | M103205H795-MY010/M103202L889-SK1 (antibody, human IgG1, kappa, Substitution put into M103205H795-SG1) heavy: not shown light: DIVMTQSPATLSLSPGERATLSCTSSQSVYHANWLSWFQQKPGQPPKLLIYWASTLAYGVPSRFSGSGSGTDFTLTISSLQPEDAATYYCAGGYGGGRYAFGQGTKVEIKRTVAAPSVFIFPPSDEQLKSGTASVVCLLNNFYPREAKVQWKVDNALQSGNSQESVTEQDSKDSTYSLSSTLTLSKADYEKHKVYACEVTHQGLSSPVTKSFNRGEC | 0.5 fold
2 | M103205H795-MY038/M103202L889-SK1 (antibody, human IgG1, kappa, Substitution put into M103205H795-SG1) heavy: not shown light: DIVMTQSPATLSLSPGERATLSCTSSQSVYHANWLSWFQQKPGQPPKLLIYWASTLAYGVPSRFSGSGSGTDFTLTISSLQPEDAATYYCAGGYGGGRYAFGQGTKVEIKRTVAAPSVFIFPPSDEQLKSGTASVVCLLNNFYPREAKVQWKVDNALQSGNSQESVTEQDSKDSTYSLSSTLTLSKADYEKHKVYACEVTHQGLSSPVTKSFNRGEC | 0.8 fold
3 | M103205H795-MY014/M103202L889-SK1 (antibody, human IgG1, kappa, Substitution put into M103205H795-SG1) heavy: not shown light: DIVMTQSPATLSLSPGERATLSCTSSQSVYHANWLSWFQQKPGQPPKLLIYWASTLAYGVPSRFSGSGSGTDFTLTISSLQPEDAATYYCAGGYGGGRYAFGQGTKVEIKRTVAAPSVFIFPPSDEQLKSGTASVVCLLNNFYPREAKVQWKVDNALQSGNSQESVTEQDSKDSTYSLSSTLTLSKADYEKHKVYACEVTHQGLSSPVTKSFNRGEC | 1.3 fold
4 | M103205H795-MY008/M103202L889-SK1 (antibody, human IgG1, kappa, Substitution put into M103205H795-SG1) heavy: not shown light: DIVMTQSPATLSLSPGERATLSCTSSQSVYHANWLSWFQQKPGQPPKLLIYWASTLAYGVPSRFSGSGSGTDFTLTISSLQPEDAATYYCAGGYGGGRYAFGQGTKVEIKRTVAAPSVFIFPPSDEQLKSGTASVVCLLNNFYPREAKVQWKVDNALQSGNSQESVTEQDSKDSTYSLSSTLTLSKADYEKHKVYACEVTHQGLSSPVTKSFNRGEC | 0.8 fold
5 | M103205H795-MY016/M103202L889-SK1 (antibody, human IgG1, kappa, Substitution put into M103205H795-SG1) heavy: not shown light: DIVMTQSPATLSLSPGERATLSCTSSQSVYHANWLSWFQQKPGQPPKLLIYWASTLAYGVPSRFSGSGSGTDFTLTISSLQPEDAATYYCAGGYGGGRYAFGQGTKVEIKRTVAAPSVFIFPPSDEQLKSGTASVVCLLNNFYPREAKVQWKVDNALQSGNSQESVTEQDSKDSTYSLSSTLTLSKADYEKHKVYACEVTHQGLSSPVTKSFNRGEC | 1.1 fold
6 | M103205H795-MY041/M103202L889-SK1 (antibody, human IgG1, kappa, Substitution put into M103205H795-SG1) heavy: not shown light: DIVMTQSPATLSLSPGERATLSCTSSQSVYHANWLSWFQQKPGQPPKLLIYWASTLAYGVPSRFSGSGSGTDFTLTISSLQPEDAATYYCAGGYGGGRYAFGQGTKVEIKRTVAAPSVFIFPPSDEQLKSGTASVVCLLNNFYPREAKVQWKVDNALQSGNSQESVTEQDSKDSTYSLSSTLTLSKADYEKHKVYACEVTHQGLSSPVTKSFNRGEC | 0.8 fold
